Measurements as given in publication PMC9452301 (Nature, 2022).

Biological target: protein phosphatase 1 catalytic subunit, γ-isoform (PPP1CCγ) (human, UniProt P36873 1-323)
Assay: cell-based or functional assay

Sequence of protein phosphatase 1 catalytic subunit, γ-isoform (PPP1CCγ) (P36873 whole entry, canonical isoform): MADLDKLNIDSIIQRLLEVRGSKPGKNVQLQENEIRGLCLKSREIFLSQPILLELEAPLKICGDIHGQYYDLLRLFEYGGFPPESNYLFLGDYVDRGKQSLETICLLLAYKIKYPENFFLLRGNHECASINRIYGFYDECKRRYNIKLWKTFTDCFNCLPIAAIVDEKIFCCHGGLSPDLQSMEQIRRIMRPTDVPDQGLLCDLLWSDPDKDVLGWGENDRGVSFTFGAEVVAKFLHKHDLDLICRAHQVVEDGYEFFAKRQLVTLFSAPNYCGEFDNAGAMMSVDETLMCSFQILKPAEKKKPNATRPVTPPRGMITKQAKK

B1: N-terminally truncated SHOC2 (SHOC2-ΔN; residues 91–582) (domain or fragment)
chain: IKELNKCREENSMRLDLSKRSIHILPSSIKELTQLTELYLYSNKLQSLPAEVGCLVNLMTLALSENSLTSLPDSLDNLKKLRMLDLRHNKLREIPSVVYRLDSLTTLYLRFNRITTVEKDIKNLSKLSMLSIRENKIKQLPAEIGELCNLITLDVAHNQLEHLPKEIGNCTQITNLDLQHNELLDLPDTIGNLSSLSRLGLRYNRLSAIPRSLAKCSALEELNLENNNISTLPESLLSSLVKLNSLTLARNCFQLYPVGGPSQFSTIYSLNMEHNRINKIPFGIFSRAKVLSKLNMKDNQLTSLPLDFGTWTSMVELNLATNQLTKIPEDVSGLVSLEVLILSNNLLKKLPHGLGNLRKLRELDLEENKLESLPNEIAYLKDLQKLVLTNNQLTTLPRGIGHLTNLTHLGLGENLLTHLPEEIGTLENLEELYLNDNPNLHSLPFELALCSKLSIMSIENCPLSHLPPQIVAGGPSFIIQFLKMQGPYRAMV
- Kd^app of SHOC2 from peptide dephosphorylation (25 nM PP1C, 1 µM MRAS(GCP)): ~40 fold weaker than full-length SHOC2
